± gives the standard deviation of the averaged measurements.
Key:
[1] = tested on: VchCAST RNA-guided transposition machinery (E. coli BL21(DE3) host, lacZ target); assay: relative integration efficiency (T-LR orientation) vs wild-type transposon end (log2 (normalized fold change)); transposon end mutated: right end (5 bp flank + 75 bp right end); higher = more efficient transposition
How it was run: (§1)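 Barcoded pools of 1549 left-end or 1849 right-end transposon variants were cloned into a pUC57 mini-transposon donor. Each pool was co-transformed with a T7-driven effector plasmid (CRISPR array, tniQ-cas8-cas7-cas6, tnsA-tnsB-tnsC) into E. coli BL21(DE3) and plated with 0.1 mM IPTG at 37°C for 18 h. Input plasmids and genomic integration junctions were PCR-amplified and Illumina-sequenced, with two biological output replicates and four wild-type barcodes as reference. Relative integration efficiency is output/input barcode abundance fold change, normalised to wild-type barcodes and log-transformed.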

[2] = tested on: VchCAST RNA-guided transposition machinery (E. coli BL21(DE3) host, lacZ target); assay: relative integration efficiency (T-RL orientation) vs wild-type transposon end (log2 (normalized fold change)); transposon end mutated: right end (5 bp flank + 75 bp right end); higher = more efficient transposition
How it was run: as §1

## ACATTTGTTGATACCACCATCAAATGGTAATTCCACCCATACATTGATAATTATCACACCCAATTTAACTATAACGCTCTGATCATAGTCAGACCAACATTGCTACGACCCGTATTCGCACCGACAC
[1]
  relative integration efficiency (log2): -4.54 ± 0.41
[2]
  relative integration efficiency (log2): -6.61 ± 0.18

## ACATTTGTTGATACAACCATAAAATGATAATTACACCCATAAATTGATAATTATCACACCCATAAATTGATATTGCCGAGGATCATAGTCAGACCAACATTGCTACGACCCGTATTCGCACCGACAC
[1]
  relative integration efficiency (log2): 0.294 ± 0.46
[2]
  relative integration efficiency (log2): 0.325 ± 0.077

## ACATTTGTTGATACAACCATAAAATGATAATTACACCCATAAATTGATATTGCTCACAACCATAAAGTGATATTTACTCTGATCATAGTCAGACCAACATTGCTACGACCCGTATTCGCACCGACAC
[1]
  relative integration efficiency (log2): 0.269 ± 0.25
[2]
  relative integration efficiency (log2): -0.424 ± 0.093

## ACATTTGTTGATACAACCATAAAGTGATATTTACAACCATAAAGTGATATTTATCACAACCATAAAATGATAATTACTCTGATCATAGTCAGACCAACATTGCTACGACCCGTATTCGCACCGACAC
[1]
  relative integration efficiency (log2): 0.11 ± 0.34
[2]
  relative integration efficiency (log2): 0.0579 ± 0.16

## ACATTTGTTGATACAACCATAAAATGATAATTACTCTGATCATAGTCAGCACCCATAAATTGATAATTATCACACCCATAAATTGATATTGCACCAACATTGCTACGACCCGTATTCGCACCGACAC
[1]
  relative integration efficiency (log2): -0.456 ± 0.19
[2]
  relative integration efficiency (log2): -4.51 ± 0.36

## ACATTTGTTGATACAACCATAAAGTGATATTTACAACCATATATTGATATCTCTCACACCCATAAATTGATATTGCCTCTGATCATAGTCAGACCAACATTGCTACGACCCGTATTCGCACCGACAC
[1]
  relative integration efficiency (log2): 0.352 ± 0.16
[2]
  relative integration efficiency (log2): -0.378 ± 0.18

## ACATTTGTTGATACAACCAGAAAATGATAATTACACCCAGAAATTGATAATTATCACACCCAGAAATTGATATTGCCTCTGATCATAGTCAGACCAACATTGCTACGACCCGTATTCGCACCGACAC
[1]
  relative integration efficiency (log2): -3.58 ± 1.1
[2]
  relative integration efficiency (log2): -5.0799 ± 0.0039

## ACATTTCTGGATACAACCATAAAATGATAATTACACCCATAAATTGATAATTATCACACCCAATTTAACTATAACGCTCTGATCATAGTCAGACCAACATTGCTACGACCCGTATTCGCACCGACAC
[1]
  relative integration efficiency (log2): 0.495 ± 0.035
[2]
  relative integration efficiency (log2): -1.94 ± 0.42

## ACATTTGTTCATACAACCCTAAAATGATAATTACACCCATAAATTGATAATTATCACCCCCAATTTAACTATAACGCTCTGATCATAGTCAGACCAACATTGCTACGACCCGTATTCGCACCGACAC
[1]
  relative integration efficiency (log2): -0.953 ± 0.35
[2]
  relative integration efficiency (log2): -2.74 ± 0.42

## ACATTTGTTGATACACCCATAAATTGATATTGCCAACCATAAAGTGATATTTATCACACCCATAAATTGATATTGCCTCTGATCATAGTCAGACCAACATTGCTACGACCCGTATTCGCACCGACAC
[1]
  relative integration efficiency (log2): -0.415 ± 0.17
[2]
  relative integration efficiency (log2): -0.74 ± 0.11

## ACATTAGTCGATACAACCATAAAATGATAATTACACCCATAAATTGATCATTATCACACCCAATTTAACTATAACGCTCTGATCATAGTCAGACCAACATTGCTACGACCCGTATTCGCACCGACAC
[1]
  relative integration efficiency (log2): -3.34 ± 1
[2]
  relative integration efficiency (log2): -7.26 ± 0.69

## ACATTTGTTGATACAACCATAAAATCATAATTCACCCCTAAATTGATAATTATCACACCCACATTTAACTATAACGCTCTGATCATAGTCAGACCAACATTGCTACGACCCGTATTCGCACCGACAC
[1]
  relative integration efficiency (log2): -1.89 ± 0.27
[2]
  relative integration efficiency (log2): -6.26 ± 0.19

## ACATTTGTTGATACAACCATAAAATGATAATTACACCCATAAATTGAGCCGGCGACACAAACGCCCGGTCGCGGTAAGAGGATCATAGTCAGACCAACATTGCTACGACCCGTATTCGCACCGACAC
[1]
  relative integration efficiency (log2): 1.83 ± 0.037
[2]
  relative integration efficiency (log2): -1.02 ± 0.23

## ACATTTGTTGATACAACCATAAAGTGATATTTACACCCATAAATTGATAATTATCACAACCATAAAATGATAATTACTCTGATCATAGTCAGACCAACATTGCTACGACCCGTATTCGCACCGACAC
[1]
  relative integration efficiency (log2): -0.112 ± 0.54
[2]
  relative integration efficiency (log2): 0.256 ± 0.0071

## ACATTTGTTGATACACCCATAAATTGATATTGCCACCCATAAATTGATATTGCTCACACCCATAAATTGATATTGCCTCTGATCATAGTCAGACCAACATTGCTACGACCCGTATTCGCACCGACAC
[1]
  relative integration efficiency (log2): 0.0807 ± 0.15
[2]
  relative integration efficiency (log2): -0.939 ± 0.095

## ACATTTGTTGATACAACCATAAAAAGATAATTACACCCATAAATTGATAATAATGACACCGAATTTAACTATAACGCTCTGATCATAGTCAGACCAACATTGCTACGACCCGTATTCGCACCGACAC
[1]
  relative integration efficiency (log2): 2.514 ± 0.018
[2]
  relative integration efficiency (log2): -1 ± 0.49

## ACATTTGTTTATACAACCATAAAATGATAATTACACCCATAAATTCATAATTATCACACCCAATTTAACTATAACGCTCTGATCATAGTCAGACCAACATTGCTACGACCCGTATTCGCACCGACAC
[1]
  relative integration efficiency (log2): -0.939 ± 0.036
[2]
  relative integration efficiency (log2): -2.45 ± 0.3

## ACATTTGTTGATACACCCATAAATTGATATTGCCACCCATAAATTGATAATTATCACAACCATAAAATGATAATTACTCTGATCATAGTCAGACCAACATTGCTACGACCCGTATTCGCACCGACAC
[1]
  relative integration efficiency (log2): -0.453 ± 0.047
[2]
  relative integration efficiency (log2): -0.382 ± 0.087

## ACATTTGTTGATACAACCATAAAATGATAATTACAAACATAAATTGATAATTATCACACCCATAAATTGATATTGCCTCTGATCATAGTCAGACCAACATTGCTACGACCCGTATTCGCACCGACAC
[1]
  relative integration efficiency (log2): -0.426 ± 0.17
[2]
  relative integration efficiency (log2): -0.0203 ± 0.014

## ACATTTGTTGATACAACCATAAAATGATAATTACACCCATAAATTGATAATTATACCACCCATAAATTGATATTGCCTCTGATCATAGTCAGACCAACATTGCTACGACCCGTATTCGCACCGACAC
[1]
  relative integration efficiency (log2): 0.802 ± 0.067
[2]
  relative integration efficiency (log2): -0.694 ± 0.23

## ACATTTGTTGATACAACCATAAAATGATACACCCATAAATTGATAATTATCACACCCATAAATTGATATTGCCTCTGATCATAGTCAGACCAACATTGCTACGACCCGTATTCGCACCGACACTGAC
[1]
  relative integration efficiency (log2): -2.04 ± 0.42
[2]
  relative integration efficiency (log2): -4.54 ± 0.12

## ACATTTGTTGATACAACCATCAAATGGTAATTACACCCATACATTGATAATTATCACACCCAATTTAACTATAACGCTCTGATCATAGTCAGACCAACATTGCTACGACCCGTATTCGCACCGACAC
[1]
  relative integration efficiency (log2): -1.54 ± 0.61
[2]
  relative integration efficiency (log2): -4.04 ± 0.11

## ACATTTGTTGATACAACCATAAAGTGATATTTACAACCATATATTGATATCTCTCAGTGGGTATTTAACTATAACGCTCTGATCATAGTCAGACCAACATTGCTACGACCCGTATTCGCACCGACAC
[1]
  relative integration efficiency (log2): 2.6 ± 0.17
[2]
  relative integration efficiency (log2): -1.32 ± 0.41

## ACATTTGTTGATACAACCATATATTGATATCTCCACCCATAAATTGATAATTATCACACCCATAAATTGATAATTACTCTGATCATAGTCAGACCAACATTGCTACGACCCGTATTCGCACCGACAC
[1]
  relative integration efficiency (log2): -0.06 ± 0.4
[2]
  relative integration efficiency (log2): -0.315 ± 0.0034

## AACGGTGTTGATACAACCATAAAATGATAATTACACCCATAAATTGATAATTATCACACCCATAAATTGATATTGCCTCTGATCATAGTCAGACCAACATTGCTACGACCCGTATTCGCACCGACAC
[1]
  relative integration efficiency (log2): 0.221 ± 0.4
[2]
  relative integration efficiency (log2): -0.153 ± 0.0083

## ACATTTGTTGATACAACCATAAAAGGATCATTACCCCCATCAATTGATAATTATCCCACCCCATTTAACTATAACGCTCTGATCATAGTCAGACCAACATTGCTACGACCCGTATTCGCACCGACAC
[1]
  relative integration efficiency (log2): -1.31 ± 0.15
[2]
  relative integration efficiency (log2): -4.43 ± 0.28

## ACATTTGTTGATACAACCATAAAATGATAATTACACCCATAAATTGATAATTACACCCATAAATTGATATTGCCTCTGATCATAGTCAGACCAACATTGCTACGACCCGTATTCGCACCGACACTGA
[1]
  relative integration efficiency (log2): 1.39 ± 0.33
[2]
  relative integration efficiency (log2): -0.821 ± 0.28

## ACATTTGTTGATACAACCATAAAATGATAATTACACCCATAAATTGATAATTCGACACAAACGCCCGGTCGCGGTAAGAGGATCATAGTCAGACCAACATTGCTACGACCCGTATTCGCACCGACAC
[1]
  relative integration efficiency (log2): 3.748 ± 0.033
[2]
  relative integration efficiency (log2): 0.636 ± 0.17

## ACATTTGTTTATACAACCATAAAATGATAATTACACCCATAAATGGATAATTATCACACCCAATTTAACTATAACGCTCTGATCATAGTCAGACCAACATTGCTACGACCCGTATTCGCACCGACAC
[1]
  relative integration efficiency (log2): -0.232 ± 0.5
[2]
  relative integration efficiency (log2): -1.86 ± 0.27

## ACATTTGTTGATACAACCATAAAATGATAATTACACCCATAAATTGATAATTAGAACACCCATAAATTGATATTGCCTCTGATCATAGTCAGACCAACATTGCTACGACCCGTATTCGCACCGACAC
[1]
  relative integration efficiency (log2): -0.0187 ± 0.33
[2]
  relative integration efficiency (log2): -0.195 ± 0.2

## ACATTTGTTGATACAACCATAAAATGATAATTACACCCATAATTTGATAATTACCACTCCCAATTTAACTATAACGCTCTGATCATAGTCAGACCAACATTGCTACGACCCGTATTCGCACCGACAC
[1]
  relative integration efficiency (log2): 2.36 ± 0.071
[2]
  relative integration efficiency (log2): -1.09 ± 0.25

## ACATTTGTTGATACAACCATAAAATGATAATTACCCCCATCAATTGATAATTATCCCACCCCATTTAACTATAACGCTCTGATCATAGTCAGACCAACATTGCTACGACCCGTATTCGCACCGACAC
[1]
  relative integration efficiency (log2): 0.417 ± 0.32
[2]
  relative integration efficiency (log2): -2.78 ± 0.51

## ACATTTGTTGATACAACCATAAAATGATAATTACACCCATAAATTGATAATTATCACACCCATAAATTGATCGGTAAGAGGATCATAGTCAGACCAACATTGCTACGACCCGTATTCGCACCGACAC
[1]
  relative integration efficiency (log2): 1.33 ± 0.2
[2]
  relative integration efficiency (log2): -0.421 ± 0.075

## ACATTTGTCGATACAACCATAAAATGATAATTACCACCCATACATTGATAATTATCACACCCATTTAACTATAACGCTCTGATCATAGTCAGACCAACATTGCTACGACCCGTATTCGCACCGACAC
[1]
  relative integration efficiency (log2): 0.0639 ± 0.32
[2]
  relative integration efficiency (log2): -2.37 ± 0.32

## ACATTTGTTGATACAACCATAAAAACTAAATTACACCCATAAATTGATAATTATCACACCCATAAATTGATATTGCCTCTGATCATAGTCAGACCAACATTGCTACGACCCGTATTCGCACCGACAC
[1]
  relative integration efficiency (log2): -1.55 ± 0.34
[2]
  relative integration efficiency (log2): -1.23 ± 0.062
